B1: Protein SST2 (Saccharomyces cerevisiae), P11972 (parent)
chain: MVDKNRTLHELSSKNFSRTPNGLIFTNDLKTVYSIFLICLDLKEKKHSSDTKSFLLTAFTKHFHFTFTYQEAIKAMGQLELKVDMNTTCINVSYNIKPSLARHLLTLFMSSKLLHTPQDRTRGEPKEKVLFQPTPKGVAVLQKYVRDIGLKTMPDILLSSFNSMKLFTFERSSVTDSIIHSDYLIHILFIKMMGAKPNVWSPTNADDPLPCLSSLLEYTNNDDTFTFEKSKPEQGWQAQIGNIDINDLERVSPLAHRFFTNPDSESHTQYYVSNAGIRLFENKTFGTSKKIVIKYTFTTKAIWQWIMDCTDIMHVKEAVSLAALFLKTGLIVPVLLQPSRTDKKKFQISRSSFFTLSKRGWDLVSWTGCKSNNIRAPNGSTIDLDFTLRGHMTVRDEKKTLDDSEGFSQDMLISSSNLNKLDYVLTDPGMRYLFRRHLEKELCVENLDVFIEIKRFLKKMTILKKLIDSKHCDKKSNTSTSKNNIVKTIDSALMKQANECLEMAYHIYSSYIMIGSPYQLNIHHNLRQNISDIMLHPHSPLSEHFPTNLYDPSPASAESAASSISSTEADTLGEPPEVSLKPSKNLSNENCSFKKQGFKHQLKEYKPAPLTLAETHSPNASVENSHTIVRYGMDNTQNDTKSVESFPATLKVLRKLYPLFEIVSNEMYRLMNNDSFQKFTQSDVYKDASALIEIQEKC
partner: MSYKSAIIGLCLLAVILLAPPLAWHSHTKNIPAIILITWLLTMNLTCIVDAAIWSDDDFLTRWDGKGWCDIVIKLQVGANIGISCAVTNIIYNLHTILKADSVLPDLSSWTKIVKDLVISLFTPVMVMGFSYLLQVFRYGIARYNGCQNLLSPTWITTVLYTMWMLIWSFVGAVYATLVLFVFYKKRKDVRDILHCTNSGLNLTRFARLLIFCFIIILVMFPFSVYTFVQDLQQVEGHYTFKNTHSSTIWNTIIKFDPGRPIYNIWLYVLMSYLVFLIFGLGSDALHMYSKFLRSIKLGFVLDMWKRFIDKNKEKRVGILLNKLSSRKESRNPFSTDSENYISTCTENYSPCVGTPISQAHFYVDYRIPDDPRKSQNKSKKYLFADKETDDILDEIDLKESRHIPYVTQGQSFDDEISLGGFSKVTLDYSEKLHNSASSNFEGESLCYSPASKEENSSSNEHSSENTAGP
B2: Protein SST2 (Saccharomyces cerevisiae), P11972 (parent)
chain: B1 chain
partner: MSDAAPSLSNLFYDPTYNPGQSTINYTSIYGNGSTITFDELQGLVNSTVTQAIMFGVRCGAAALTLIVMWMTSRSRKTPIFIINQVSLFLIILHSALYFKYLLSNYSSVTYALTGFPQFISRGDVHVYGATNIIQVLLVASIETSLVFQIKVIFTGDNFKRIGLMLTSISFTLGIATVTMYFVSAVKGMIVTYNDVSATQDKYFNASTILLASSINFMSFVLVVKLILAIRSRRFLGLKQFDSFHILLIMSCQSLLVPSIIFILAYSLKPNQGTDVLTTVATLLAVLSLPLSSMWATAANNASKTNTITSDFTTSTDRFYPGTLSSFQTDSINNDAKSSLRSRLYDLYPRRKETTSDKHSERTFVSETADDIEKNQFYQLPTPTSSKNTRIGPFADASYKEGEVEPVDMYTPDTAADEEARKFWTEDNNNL
B3: Pheromone a factor receptor (Saccharomyces cerevisiae), P06783 (parent)
chain: B1 partner
partner: B1 chain
B4: Pheromone alpha factor receptor (Saccharomyces cerevisiae (Baker's yeast)), P0CI39 (parent)
chain: B2 partner
partner: B1 chain

Variants of: B1
Conditions: with ste3_yeast STE3, P06783

| effect of a mutation on the interaction | Variant |
| --- | --- |
| disrupting interaction | Q304N |

Variants of: B2
Conditions: with ste2_yeasx STE2, P0CI39

| effect of a mutation on the interaction | Variant |
| --- | --- |
| disrupting interaction | Q304L |
| disrupting interaction | Q304E |

Variants of: B2
Conditions: with ste2_yeasx STE2, P0CI39
Remark: another data set of the same source

| effect of a mutation on the interaction | Variant |
| --- | --- |
| disrupting interaction | Q304N |

Variants of: B3
Conditions: with sst2_yeast SST2, P11972

| effect of a mutation on the interaction | Variant |
| --- | --- |
| increasing interaction | K424R;K432R;K453R |

Variants of: B4
Conditions: with sst2_yeast SST2, P11972

| effect of a mutation on the interaction | Variant |
| --- | --- |
| increasing interaction | K337R;K352R;K358R;K374R;K387R;K400R;K422R |

Source: IntAct's records for PubMed 16990133
